Patent US6942981
Ends that are not written are not given here. * marks the point of attachment. Biotin = O=C1N[C@H]2[C@H](CS[C@H]2CCCCC(=O)*)N1

Experiments:
Assay in all cases: A/G assays
[1] = molecular target: T1, GST-MINT3 PDZ domain fusion protein (human)
T1 construct: also called human MINT3; not shown: glutathione S-transferase (GST) encoded by pGEX-3X
T1 chain: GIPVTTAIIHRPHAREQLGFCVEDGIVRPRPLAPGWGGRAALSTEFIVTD

[2] = molecular target: T2, GST-MPP2 PDZ domain fusion protein
T2 construct: also called maguk p55 subfamily member 2 (DLG2); MMP2; not shown: glutathione S-transferase (GST) encoded by pGEX-3X
T2 chain: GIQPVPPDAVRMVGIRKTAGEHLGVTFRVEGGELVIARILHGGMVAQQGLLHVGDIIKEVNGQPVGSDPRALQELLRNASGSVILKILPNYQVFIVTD

[3] = molecular target: T3, GST-CBP (Cytohesin binding protein HE) PDZ domain fusion protein (Homo sapiens (Human), UniProt O60759 74-165)
T3 construct: not shown: glutathione S-transferase (GST) encoded by pGEX-3X
T3 sequence: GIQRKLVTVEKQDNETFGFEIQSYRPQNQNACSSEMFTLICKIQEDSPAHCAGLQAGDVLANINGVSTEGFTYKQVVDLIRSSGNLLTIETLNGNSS

[4] = molecular target: T4, GST-CASK PDZ domain fusion protein (mouse, UniProt O14936 485-575 (human entry))
T4 sequence: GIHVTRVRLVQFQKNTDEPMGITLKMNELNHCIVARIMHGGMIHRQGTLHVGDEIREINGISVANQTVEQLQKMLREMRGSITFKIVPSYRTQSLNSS

[5] = molecular target: T5, GST-PTN-4 PDZ domain fusion protein (Homo sapiens (Human), UniProt P29074 517-605)
T5 construct: also called protein-tyrosine phosphatase meg1; not shown: glutathione S-transferase (GST) encoded by pGEX-3X
T5 sequence: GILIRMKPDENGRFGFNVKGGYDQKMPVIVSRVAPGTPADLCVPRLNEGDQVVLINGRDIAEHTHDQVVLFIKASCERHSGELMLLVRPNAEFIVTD

[6] = molecular target: T6, GST-MPP1 PDZ domain fusion protein (Homo sapiens (Human), UniProt Q00013 67-152)
T6 construct: also called 55 Kd erythrocyte membrane protein; not shown: glutathione S-transferase (GST) encoded by pGEX-3X
T6 sequence: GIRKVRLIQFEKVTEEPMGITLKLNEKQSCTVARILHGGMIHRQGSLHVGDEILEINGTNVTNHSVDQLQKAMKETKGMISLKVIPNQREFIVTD

[7] = molecular target: T7, GST-DVL1 PDZ domain fusion protein (human)
T7 construct: also called human dishevelled segment polarity protein homolog; not shown: glutathione S-transferase (GST) encoded by pGEX-3X
T7 chain: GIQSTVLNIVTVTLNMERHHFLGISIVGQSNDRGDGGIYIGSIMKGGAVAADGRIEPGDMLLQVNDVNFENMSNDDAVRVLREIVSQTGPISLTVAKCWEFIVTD

[8] = molecular target: T8, GST-TIAM1 PDZ domain fusion protein (Homo sapiens (Human), UniProt Q13009 845-932)
T8 construct: also called T-lymphoma invasion and metastasis inducing protein 1; not shown: glutathione S-transferase (GST) encoded by pGEX-3X
T8 sequence (Q13009 other isoform, or with tags, fused parts or gaps): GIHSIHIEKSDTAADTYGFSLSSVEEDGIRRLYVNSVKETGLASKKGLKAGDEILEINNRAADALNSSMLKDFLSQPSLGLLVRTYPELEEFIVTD

[9] = molecular target: T9, GST-TAX40 PDZ domain fusion protein (human, UniProt Q6B4M5 150-251 (rat entry))
T9 construct: not shown: glutathione S-transferase (GST) encoded by pGEX-3X
T9 sequence: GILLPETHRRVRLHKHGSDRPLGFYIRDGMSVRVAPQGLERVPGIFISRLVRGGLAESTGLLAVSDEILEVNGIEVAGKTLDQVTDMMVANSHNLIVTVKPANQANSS

[10] = molecular target: T10, GST-TAX43 PDZ domain fusion protein (human, UniProt Q13884 109-180)
T10 construct: not shown: glutathione S-transferase (GST) encoded by pGEX-3X
T10 sequence: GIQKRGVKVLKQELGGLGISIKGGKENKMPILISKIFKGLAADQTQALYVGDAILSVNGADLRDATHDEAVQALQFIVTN

[11] = molecular target: T11, GST-TAX33 PDZ domain fusion protein (Homo sapiens (Human), UniProt O14910 103-194)
T11 construct: not shown: glutathione S-transferase (GST) encoded by pGEX-3X
T11 sequence: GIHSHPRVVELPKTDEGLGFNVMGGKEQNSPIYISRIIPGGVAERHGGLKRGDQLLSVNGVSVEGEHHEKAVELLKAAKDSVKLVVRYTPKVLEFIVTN

[12] = molecular target: T12, GST-KIAA0303 PDZ domain fusion protein (Homo sapiens (Human), UniProt O15021 1138-1229)
T12 construct: also called K303; not shown: glutathione S-transferase (GST) encoded by pGEX-3X
T12 sequence: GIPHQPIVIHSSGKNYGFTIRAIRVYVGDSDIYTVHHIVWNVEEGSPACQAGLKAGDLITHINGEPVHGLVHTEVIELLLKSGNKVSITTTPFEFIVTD

[13] = molecular target: T13, GST-41.8 kD (hypothetical 41.8 kD protein) PDZ domain fusion protein (Mus musculus (Mouse), UniProt Q9EQZ7 682-763)
T13 construct: not shown: glutathione S-transferase (GST) encoded by pGEX-3X
T13 sequence: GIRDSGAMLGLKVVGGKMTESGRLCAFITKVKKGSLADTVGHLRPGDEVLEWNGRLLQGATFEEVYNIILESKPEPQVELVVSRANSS

[14] = molecular target: T14, GST-RGS12 PDZ domain fusion protein (human, UniProt O14924 17-85)
T14 construct: also called human regulator of G-protein signalling 12; not shown: glutathione S-transferase (GST) encoded by pGEX-3X
T14 sequence: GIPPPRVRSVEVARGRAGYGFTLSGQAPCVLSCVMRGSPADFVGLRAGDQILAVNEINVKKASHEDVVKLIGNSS

[15] = molecular target: T15, GST-TAX2 PDZ domain fusion protein (human, UniProt O14908 129-216)
T15 construct: not shown: glutathione S-transferase (GST) encoded by pGEX-3X
T15 chain: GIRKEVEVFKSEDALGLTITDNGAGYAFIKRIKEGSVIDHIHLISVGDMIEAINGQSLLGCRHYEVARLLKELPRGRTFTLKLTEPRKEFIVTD

[16] = molecular target: T16, GST-KIAA0316 PDZ domain fusion protein (Homo sapiens (Human), UniProt Q14CM0 72-159)
T16 construct: also called K316; not shown: glutathione S-transferase (GST) encoded by pGEX-3X
T16 sequence (Q14CM0 other isoform, or with tags, fused parts or gaps): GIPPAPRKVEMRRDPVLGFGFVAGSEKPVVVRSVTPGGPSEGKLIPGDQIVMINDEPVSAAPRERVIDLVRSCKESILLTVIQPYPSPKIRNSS

Measured: binding result

B1: CD34 C-terminal peptide AA7L (peptide)
peptide: Biotin-QATSRNGHSARQHVVADTEL
no binding: all assays above

B2: CD148 peptide AA55L (ending KTIA) (peptide)
peptide: Biotin-TIYENLAPVTTFGKTIA
no binding: all assays above
